Assay results from article PMC8304084, “A Concerted Action of UBA5 C-Terminal Unstructured Regions Is Important for Transfer of Activated UFM1 to UFC1” (International Journal of Molecular Sciences, 2021).
Where two headings read alike, the source gives them in different places. Values belong to the molecule of their own block, whether it stands above or below them.

What was measured:
UBA5 [1] = details: in vitro; cited from earlier work
Excerpt: The UBA5 C-terminal part (Figure 1A) plays a complex regulatory role, consisting of a few conserved regions that mediate interaction of UBA5 with other key players in the ufmylation cascade. The first sequence is a conserved region (R1, residues 334–348), interacting with UFM1 [10, 29, 30, 31, 32] and also with LC3/GABARAP proteins. This region (called LIR/UFIM by its dual nature) is important for the initial binding of UFM1 to UBA5 [10, 29, 31, 32] and for the following UFM1 activation in a trans-fashion. Trans-activation means that UBA5 forms an active ho ...

UFC1 = biological target: T1, UFC1 (Homo sapiens, UniProt Q9Y3C8); experiment: In vitro thioester formation (ufmylation) assay, UFC1~UFM1 conjugate; assay type: biochemical; details: 70 µM UFM1, 20 µM UFC1, 20 µM UBA5 construct, 1 mM ATP, 50 mM HEPES pH 7.5, 22 °C
T1 construct: Full length UFC1, residues 1–167; modified ubiquitin tag (Ub19) with TEV site (N, cleaved yes); made in house; host or cells: E. coli T7 Express
T1 sequence (Q9Y3C8 1-167): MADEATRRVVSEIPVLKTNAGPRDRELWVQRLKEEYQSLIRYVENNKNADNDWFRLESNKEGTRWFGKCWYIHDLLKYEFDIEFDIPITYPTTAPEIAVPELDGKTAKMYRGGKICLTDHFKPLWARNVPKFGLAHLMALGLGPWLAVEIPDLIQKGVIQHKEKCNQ
Description: First, we analyzed the effect of the UBA5 C-terminus on UFM1 transfer to UFC1 with an in vitro thioester formation assay (Figure 1B–E).
Ufmylation reaction assays were adopted from work of Xie. Briefly, 70 µM UFM1, 20 µM UFC1 and 20 µM of different UBA5 constructs were mixed in reaction buffer (50 mM HEPES pH = 7.5, 100 mM NaCl, 5 mM MgCl2). After starting the reaction with addition of 1 mM ATP, the reaction mix was incubated at 22 °C for the desired time. To quench the reaction and prepare electrophoretic samples, 1 µL of the reaction mix was added to 99 µL 1x non-reducing SDS loading buffer and frozen in liquid nitrogen. Sample content was visualized by sodium dodecyl sulfate polyacrylamide gel electrophoresis (SDS-PAGE). The transfer to polyvinylidene difluoride (PVDF) membrane was performed via a Trans-Blot® Turbo™ Transfer System (Bio-Rad, München, Germany). After transfer the membrane was blocked with TBST (Tris-buffered saline with Tween20 buffer, 20 mM Tris, 150 mM NaCl and 0.1% TWEEN 20) containing 5% w/v nonfat dry milk for 1 h, followed by α-UFC1 antibody incubation over night at 4 °C (ab189251 abcam, 1:10,000 in TBST containing 5% w/v nonfat dry milk). After washing with TBST the membrane was incubated with secondary antibody (anti-rabbit-HRP) for 1 h at RT and again washed with TBST. […] For quantification of UFC1 ufmylation coloc2 software implemented in ImageJ was used.

UBA5 [2] = details: cited from earlier work
Excerpt: Another conserved region in UBA5 is located at it very C-terminus (R3, residues 393–404) and is predicted to have a helical conformation. […] UFC1, the only known E2 enzyme for UFM1, was characterized structurally a few years after discovery of the UFM1 cascade. […] In our structure we observed that the UFC1 K33 sidechain forms an intermolecular hydrogen bond with the UBA5 D389 sidechain (Figure 3F). In contrast, UFC1 Q31 is not in contact with any of the UBA5 R3 residue and could not affect the UBA5:UFC1 interaction.

B1: GABARAP: GABARAP, residues 3–116 (protein)
chain: GAMFVYKEEHPFEKRRSEGEKIRKKYPDRVPVIVEKAPKARIGDLDKKKYLVPSDLTVGQFYFLIRKRIHLRAEDALFFFVNNVIPPTSATMGQLYQEHHEEDFFLYIAYSDESVYG
modifications: left off: modified ubiquitin tag (Ub19), N-terminal, cleaved
effect on UFM1 binding to UBA5 (UBA5 [1]): inhibit UFM1 binding to UBA5

UFC1~UFM1 conjugation (UFC1; 7 h): 80% | UFC1 conjugated to UFM1 (UFC1~UFM1) (UFC1; within 30 min, Western blot, triplicates): less than 5%
B2: AD^1–330: UBA5 adenylation domain, residues 1–330 (protein, UniProt Q9GZZ9 1-330, looked up, fragment)
chain: MAESVERLQQRVQELERELAQERSLQVPRSGDGGGGRVRIEKMSSEVVDSNPYSRLMALKRMGIVSDYEKIRTFAVAIVGVGGVGSVTAEMLTRCGIGKLLLFDYDKVELANMNRLFFQPHQAGLSKVQAAEHTLRNINPDVLFEVHNYNITTVENFQHFMDRISNGGLEEGKPVDLVLSCVDNFEARMTINTACNELGQTWMESGVSENAVSGHIQLIIPGESACFACAPPLVVAANIDEKTLKREGVCAASLPTTMGVVAGILVQNVLKFLLNFGTVSFYLGYNAMQDFFPTMSMKPNPQCDDRNCRKQQEEYKKKVAALPKQEVIQE
modifications: adenylation domain

B3: UFC1 K33A: UFC1 K33A mutation, literature (protein, UniProt Q9Y3C8 1-167, looked up, variant K33A)
Ubiquitin-fold …: MADEATRRVVSEIPVLKTNAGPRDRELWVQRLAEEYQSLIRYVENNKNADNDWFRLESNKEGTRWFGKCWYIHDLLKYEFDIEFDIPITYPTTAPEIAVPELDGKTAKMYRGGKICLTDHFKPLWARNVPKFGLAHLMALGLGPWLAVEIPDLIQKGVIQHKEKCNQ
effect of UFC1 mutation on UBA5 binding and UFM1 transfer (UBA5 [2]): significantly reduces both UBA5 binding and UFM1 transfer from UBA5 to UFC1 | effect of UFC1 mutation on UBA5 binding and UFM1 transfer (UBA5 [2]; listed as K33A): impaired UBA5 binding and UFM1 transfer to UFC1
